Laboratory results taken from article PMC9482650, “Quantitative fragmentomics allow affinity mapping of interactomes” (Nature Communications, 2022).

T1: APBA3_1, O96018
T1 sequence (O96018 389-490, limits assumed, looked up): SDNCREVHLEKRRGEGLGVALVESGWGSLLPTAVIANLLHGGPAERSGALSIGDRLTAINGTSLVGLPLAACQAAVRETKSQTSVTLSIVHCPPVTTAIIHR

T2: LRRC7, Q96NW7
T2 sequence (Q96NW7 1440-1537, limits assumed, looked up): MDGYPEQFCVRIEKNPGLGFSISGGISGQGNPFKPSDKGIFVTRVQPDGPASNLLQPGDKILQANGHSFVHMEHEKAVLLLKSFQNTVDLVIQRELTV

T3: NHERF3_1, Q5T2W1
T3 sequence (Q5T2W1 4-100, limits assumed, looked up): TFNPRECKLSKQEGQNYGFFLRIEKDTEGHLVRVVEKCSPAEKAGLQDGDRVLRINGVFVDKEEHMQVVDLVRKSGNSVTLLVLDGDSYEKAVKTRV

T4: PTPN13_1, Q12923
T4 sequence (Q12923 1088-1188, limits assumed, looked up): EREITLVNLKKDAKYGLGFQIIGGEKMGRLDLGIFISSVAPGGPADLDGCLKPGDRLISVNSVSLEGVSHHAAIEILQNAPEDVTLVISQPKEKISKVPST

T5: SNTA1, Q13424
T5 sequence (Q13424 82-180, limits assumed, looked up): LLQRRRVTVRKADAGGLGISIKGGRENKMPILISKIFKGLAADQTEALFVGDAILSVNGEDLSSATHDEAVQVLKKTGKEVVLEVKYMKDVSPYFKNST

T6: MPDZ_12, O75970
T6 sequence (O75970 1857-1958, limits assumed, looked up): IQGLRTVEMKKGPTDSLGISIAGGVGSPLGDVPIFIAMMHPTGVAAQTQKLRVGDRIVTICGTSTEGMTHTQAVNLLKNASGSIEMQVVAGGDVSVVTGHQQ

T7: SYNJ2BP, P57105
T7 sequence (P57105 8-110, limits assumed, looked up): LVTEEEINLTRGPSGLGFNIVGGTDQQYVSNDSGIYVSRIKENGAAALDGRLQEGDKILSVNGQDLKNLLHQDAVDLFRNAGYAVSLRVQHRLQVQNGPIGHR

T8: TJP3_3, O95049
T8 sequence (O95049 375-456, limits assumed, looked up): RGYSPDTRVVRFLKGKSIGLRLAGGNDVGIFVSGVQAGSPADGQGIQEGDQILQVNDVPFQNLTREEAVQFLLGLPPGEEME

T9: MPDZ_10, O75970
T9 sequence (O75970 1624-1722, limits assumed, looked up): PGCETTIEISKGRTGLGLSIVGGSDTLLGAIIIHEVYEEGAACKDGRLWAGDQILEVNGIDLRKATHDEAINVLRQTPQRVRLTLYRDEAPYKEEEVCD

T10: GRIP1_7, Q9Y3R0
T10 sequence (Q9Y3R0 999-1096, limits assumed, looked up): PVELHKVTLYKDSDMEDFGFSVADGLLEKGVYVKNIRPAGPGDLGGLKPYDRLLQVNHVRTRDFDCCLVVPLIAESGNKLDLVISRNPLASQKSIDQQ

T11: RHPN1, Q8TCX5
T11 sequence (Q8TCX5 508-602, limits assumed, looked up): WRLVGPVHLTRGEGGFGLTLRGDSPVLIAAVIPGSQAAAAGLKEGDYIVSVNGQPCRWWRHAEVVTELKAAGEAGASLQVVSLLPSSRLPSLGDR

T12: DFNB31_2, Q9P202
T12 sequence (Q9P202 274-371, limits assumed, looked up): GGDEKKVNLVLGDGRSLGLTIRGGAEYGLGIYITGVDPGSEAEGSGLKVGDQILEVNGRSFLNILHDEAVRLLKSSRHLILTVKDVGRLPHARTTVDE

T13: APBA2_1, Q99767
T13 sequence (Q99767 563-664, limits assumed, looked up): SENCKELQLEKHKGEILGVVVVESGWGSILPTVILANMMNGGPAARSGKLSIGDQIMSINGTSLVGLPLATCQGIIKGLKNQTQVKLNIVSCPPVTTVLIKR

B1: CLDN18, P56856 (peptide)
chain: QSYPSKHDYV
B2: CCRL2, O00421 (peptide)
chain: REEPDHSTEV

target: MAGI2_4, Q86UL8; assay: holdup assay; parameters: key: below the threshold = too weak to quantify, mostly under pKd 3.1 to 4; details: plain residues with an end cap or a label only (N-terminal biotin on a linker: ado-ado)
Sequence (Q86UL8 772-865): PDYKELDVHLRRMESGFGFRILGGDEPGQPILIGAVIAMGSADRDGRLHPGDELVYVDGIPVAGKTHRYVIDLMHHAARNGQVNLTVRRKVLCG

| Binder | pKd |
| --- | --- |
| B1 | 3.68 |
| B2 | 3.95 |

target: T1, APBA3_1, O96018; assay: holdup assay; parameters: key: below the threshold = too weak to quantify, mostly under pKd 3.1 to 4; details: plain residues with an end cap or a label only (N-terminal biotin on a linker: ado-ado)

| Binder | pKd |
| --- | --- |
| B1 | below the threshold |
| B2 | below the threshold |

target: T2, LRRC7, Q96NW7; assay: holdup assay; parameters: key: below the threshold = too weak to quantify, mostly under pKd 3.1 to 4; details: plain residues with an end cap or a label only (N-terminal biotin on a linker: ado-ado)

| Binder | pKd |
| --- | --- |
| B1 | below the threshold |
| B2 | below the threshold |

target: T3, NHERF3_1, Q5T2W1; assay: holdup assay; parameters: key: below the threshold = too weak to quantify, mostly under pKd 3.1 to 4; details: plain residues with an end cap or a label only (N-terminal biotin on a linker: ado-ado)

| Binder | pKd |
| --- | --- |
| B1 | 4.26 |
| B2 | 4.57 |

target: Inadl_5, Q8NI35; assay: holdup assay; parameters: key: below the threshold = too weak to quantify, mostly under pKd 3.1 to 4; details: plain residues with an end cap or a label only (N-terminal biotin on a linker: ado-ado)
Sequence (Q8NI35 673-780): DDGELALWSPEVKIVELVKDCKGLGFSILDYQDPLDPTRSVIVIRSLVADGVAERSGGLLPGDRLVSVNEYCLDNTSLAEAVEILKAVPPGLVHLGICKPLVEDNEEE

| Binder | pKd |
| --- | --- |
| B1 | 3.57 |
| B2 | below the threshold |

target: LNX1_3, Q8TBB1; assay: holdup assay; parameters: key: below the threshold = too weak to quantify, mostly under pKd 3.1 to 4; details: plain residues with an end cap or a label only (N-terminal biotin on a linker: ado-ado)
Sequence (Q8TBB1 500-596): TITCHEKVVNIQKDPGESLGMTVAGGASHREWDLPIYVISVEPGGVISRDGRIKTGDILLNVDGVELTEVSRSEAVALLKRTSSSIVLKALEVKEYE

| Binder | pKd |
| --- | --- |
| B1 | 3.74 |
| B2 | below the threshold |

target: CASK, O14936; assay: holdup assay; parameters: key: below the threshold = too weak to quantify, mostly under pKd 3.1 to 4; details: plain residues with an end cap or a label only (N-terminal biotin on a linker: ado-ado)
Sequence (O14936 487-570): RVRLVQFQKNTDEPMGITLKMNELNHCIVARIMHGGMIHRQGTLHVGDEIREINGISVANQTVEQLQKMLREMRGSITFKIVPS

| Binder | pKd |
| --- | --- |
| B1 | below the threshold |
| B2 | below the threshold |

target: T4, PTPN13_1, Q12923; assay: holdup assay; parameters: key: below the threshold = too weak to quantify, mostly under pKd 3.1 to 4; details: plain residues with an end cap or a label only (N-terminal biotin on a linker: ado-ado)

| Binder | pKd |
| --- | --- |
| B1 | below the threshold |
| B2 | below the threshold |

target: PDZRN4_1, Q6ZMN7; assay: holdup assay; parameters: key: below the threshold = too weak to quantify, mostly under pKd 3.1 to 4; details: plain residues with an end cap or a label only (N-terminal biotin on a linker: ado-ado)
Sequence (Q6ZMN7 213-318): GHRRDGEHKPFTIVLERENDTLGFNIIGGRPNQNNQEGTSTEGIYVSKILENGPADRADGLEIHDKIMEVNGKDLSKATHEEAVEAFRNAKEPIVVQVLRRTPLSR

| Binder | pKd |
| --- | --- |
| B1 | below the threshold |
| B2 | 4.17 |

target: T5, SNTA1, Q13424; assay: holdup assay; parameters: key: below the threshold = too weak to quantify, mostly under pKd 3.1 to 4; details: plain residues with an end cap or a label only (N-terminal biotin on a linker: ado-ado)

| Binder | pKd |
| --- | --- |
| B1 | 3.58 |
| B2 | 4.45 |

target: T6, MPDZ_12, O75970; assay: holdup assay; parameters: key: below the threshold = too weak to quantify, mostly under pKd 3.1 to 4; details: plain residues with an end cap or a label only (N-terminal biotin on a linker: ado-ado)

| Binder | pKd |
| --- | --- |
| B1 | below the threshold |
| B2 | below the threshold |

target: DLG1_2, Q12959; assay: holdup assay; parameters: key: below the threshold = too weak to quantify, mostly under pKd 3.1 to 4; details: plain residues with an end cap or a label only (N-terminal biotin on a linker: ado-ado)

| Binder | pKd |
| --- | --- |
| B1 | 3.71 |
| B2 | 4.77 |

target: T7, SYNJ2BP, P57105; assay: holdup assay; parameters: key: below the threshold = too weak to quantify, mostly under pKd 3.1 to 4; details: plain residues with an end cap or a label only (N-terminal biotin on a linker: ado-ado)

| Binder | pKd |
| --- | --- |
| B1 | below the threshold |
| B2 | 5.14 |

target: T8, TJP3_3, O95049; assay: holdup assay; parameters: key: below the threshold = too weak to quantify, mostly under pKd 3.1 to 4; details: plain residues with an end cap or a label only (N-terminal biotin on a linker: ado-ado)

| Binder | pKd |
| --- | --- |
| B1 | 4.02 |
| B2 | below the threshold |

target: MAGI1_2, Q96QZ7; assay: holdup assay; parameters: key: below the threshold = too weak to quantify, mostly under pKd 3.1 to 4; details: plain residues with an end cap or a label only (N-terminal biotin on a linker: ado-ado)
Sequence (Q96QZ7 456-580): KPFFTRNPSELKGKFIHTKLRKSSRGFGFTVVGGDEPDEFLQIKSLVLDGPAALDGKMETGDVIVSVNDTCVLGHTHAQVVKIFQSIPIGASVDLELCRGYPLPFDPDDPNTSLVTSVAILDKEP

| Binder | pKd |
| --- | --- |
| B1 | below the threshold |
| B2 | below the threshold |

target: DLG1_1, Q12959; assay: holdup assay; parameters: key: below the threshold = too weak to quantify, mostly under pKd 3.1 to 4; details: plain residues with an end cap or a label only (N-terminal biotin on a linker: ado-ado)

| Binder | pKd |
| --- | --- |
| B1 | below the threshold |
| B2 | 4.49 |

target: DLG1_3, Q12959; assay: holdup assay; parameters: key: below the threshold = too weak to quantify, mostly under pKd 3.1 to 4; details: plain residues with an end cap or a label only (N-terminal biotin on a linker: ado-ado)

| Binder | pKd |
| --- | --- |
| B1 | 3.49 |
| B2 | below the threshold |

target: T9, MPDZ_10, O75970; assay: holdup assay; parameters: key: below the threshold = too weak to quantify, mostly under pKd 3.1 to 4; details: plain residues with an end cap or a label only (N-terminal biotin on a linker: ado-ado)

| Binder | pKd |
| --- | --- |
| B1 | 3.64 |
| B2 | 3.7 |

target: T10, GRIP1_7, Q9Y3R0; assay: holdup assay; parameters: key: below the threshold = too weak to quantify, mostly under pKd 3.1 to 4; details: plain residues with an end cap or a label only (N-terminal biotin on a linker: ado-ado)

| Binder | pKd |
| --- | --- |
| B1 | below the threshold |
| B2 | 3.56 |

target: NHERF4_4, Q86UT5; assay: holdup assay; parameters: key: below the threshold = too weak to quantify, mostly under pKd 3.1 to 4; details: plain residues with an end cap or a label only (N-terminal biotin on a linker: ado-ado)
Sequence (Q86UT5 464-550): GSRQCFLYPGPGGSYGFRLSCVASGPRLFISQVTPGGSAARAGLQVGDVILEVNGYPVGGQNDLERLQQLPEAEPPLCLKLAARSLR

| Binder | pKd |
| --- | --- |
| B1 | 4.03 |
| B2 | below the threshold |

target: T11, RHPN1, Q8TCX5; assay: holdup assay; parameters: key: below the threshold = too weak to quantify, mostly under pKd 3.1 to 4; details: plain residues with an end cap or a label only (N-terminal biotin on a linker: ado-ado)

| Binder | pKd |
| --- | --- |
| B1 | below the threshold |
| B2 | 3.83 |

target: MAGI2_2, Q86UL8; assay: holdup assay; parameters: key: below the threshold = too weak to quantify, mostly under pKd 3.1 to 4; details: plain residues with an end cap or a label only (N-terminal biotin on a linker: ado-ado)
Sequence (Q86UL8 410-522): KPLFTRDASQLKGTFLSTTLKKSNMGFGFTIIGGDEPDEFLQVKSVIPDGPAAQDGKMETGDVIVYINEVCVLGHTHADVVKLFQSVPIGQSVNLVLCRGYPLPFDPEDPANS

| Binder | pKd |
| --- | --- |
| B1 | below the threshold |
| B2 | below the threshold |

target: T12, DFNB31_2, Q9P202; assay: holdup assay; parameters: key: below the threshold = too weak to quantify, mostly under pKd 3.1 to 4; details: plain residues with an end cap or a label only (N-terminal biotin on a linker: ado-ado)

| Binder | pKd |
| --- | --- |
| B1 | below the threshold |
| B2 | below the threshold |

target: GRIP2_7, Q9C0E4; assay: holdup assay; parameters: key: below the threshold = too weak to quantify, mostly under pKd 3.1 to 4; details: plain residues with an end cap or a label only (N-terminal biotin on a linker: ado-ado)
Sequence (Q9C0E4 934-1023): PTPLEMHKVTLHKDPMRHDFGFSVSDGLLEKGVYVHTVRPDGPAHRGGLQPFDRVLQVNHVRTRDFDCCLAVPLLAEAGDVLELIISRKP

| Binder | pKd |
| --- | --- |
| B1 | below the threshold |
| B2 | below the threshold |

target: T13, APBA2_1, Q99767; assay: holdup assay; parameters: key: below the threshold = too weak to quantify, mostly under pKd 3.1 to 4; details: plain residues with an end cap or a label only (N-terminal biotin on a linker: ado-ado)

| Binder | pKd |
| --- | --- |
| B1 | 3.57 |
| B2 | below the threshold |
